Reference: publication PMC4706845

Legend:
[1] = molecular target: PIKfyve from pig brain cytosol; assay: proteo-liposome recruitment, western blot band quantification; settings: 2 % input bar shown for reference, parent: est. 38, read off a plot
[2] = molecular target: Vac14 from pig brain cytosol (UniProt F1S3E8); assay: as above; settings: 2 % input bar shown for reference, parent: est. 21, read off a plot
Chain of UniProt F1S3E8 (F1S3E8 entry or part of it): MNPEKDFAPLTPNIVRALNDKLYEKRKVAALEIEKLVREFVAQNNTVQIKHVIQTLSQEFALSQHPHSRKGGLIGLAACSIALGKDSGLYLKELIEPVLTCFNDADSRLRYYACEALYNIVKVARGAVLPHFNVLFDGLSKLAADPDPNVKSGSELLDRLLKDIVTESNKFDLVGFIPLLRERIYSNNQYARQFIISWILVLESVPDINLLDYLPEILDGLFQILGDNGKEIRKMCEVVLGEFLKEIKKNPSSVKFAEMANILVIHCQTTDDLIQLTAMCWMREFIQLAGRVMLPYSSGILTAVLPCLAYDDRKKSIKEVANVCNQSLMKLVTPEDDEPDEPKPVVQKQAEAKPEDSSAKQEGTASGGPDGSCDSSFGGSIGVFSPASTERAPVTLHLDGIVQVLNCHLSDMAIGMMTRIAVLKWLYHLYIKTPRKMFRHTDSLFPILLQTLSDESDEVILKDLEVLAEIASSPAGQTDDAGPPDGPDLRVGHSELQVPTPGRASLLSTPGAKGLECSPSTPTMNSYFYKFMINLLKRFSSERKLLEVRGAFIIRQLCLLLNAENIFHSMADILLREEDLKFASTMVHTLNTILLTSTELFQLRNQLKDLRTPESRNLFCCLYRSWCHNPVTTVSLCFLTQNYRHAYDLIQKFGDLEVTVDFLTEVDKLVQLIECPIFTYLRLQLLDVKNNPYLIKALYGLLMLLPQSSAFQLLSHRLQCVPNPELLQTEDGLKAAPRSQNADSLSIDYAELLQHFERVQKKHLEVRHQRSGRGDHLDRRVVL

response [1] [a.u.] | response [2] [a.u.] | Substance
3 | 0.7 | APP intracellular domain (AICD), full length AICD T38A; Y39A
8.5 | 3.5 | APP intracellular domain (AICD), full length AICD N36A; P37A
2.5 | 1 | APP intracellular domain (AICD), full length AICD Y34A; E35A
